The source of these data is patent US20260209386A1 (MYTHIC THERAPEUTICS, published 2026).

Changes are numbered by the printed parent chain.

Sequences and labels used below:
B1: MYT10994 (antibody, V domains shown)
VH: EVQLVESGGGLVQPGGSLRLSCTASGFSLSSYAMGWVRQAPGKGLEWVGFINAGGNTYYANWAKGRFTISRDTSKNTVYLQMNSLRAEDTAVYFCARRYSRASGWYDLWGQGTLVTVSS
VL: EIVMTQSPSTLSASVGDRVIITCQAHQSISSYLAWYQQKPGKAPKLLIYAASTLASGVPSRFSGSGSGAEFTLTISSLQPDDFATYYCQSYSYSSGIDYGDVFGQGTKLTVL
notes: MYT9359 LC variant; captured on anti-human Fc sensor
B2: MYT11008 (antibody, V domains shown)
VH: B1 VH
VL: B1 VL with H26S, A55H
notes: as for B1
B3: MYT11009 (antibody, V domains shown)
VH: B1 VH
VL: B1 VL with H26S, S56H
notes: as for B1
B4: MYT10995 (antibody, V domains shown)
VH: B1 VH
VL: B1 VL with H26S, Q27H
notes: as for B1
B5: MYT11016 (antibody, V domains shown)
VH: B1 VH
VL: B1 VL with H26S, S95H
notes: as for B1
B6: MYT11015 (antibody, V domains shown)
VH: B1 VH
VL: B1 VL with H26S, S94H
notes: as for B1
B7: MYT11020 (antibody, V domains shown)
VH: B1 VH
VL: B1 VL with H26S, Y99H
notes: as for B1
B8: MYT10996 (antibody, V domains shown)
VH: B1 VH
VL: B1 VL with H26S, S28H
notes: as for B1
B9: MYT11019 (antibody, V domains shown)
VH: B1 VH
VL: B1 VL with H26S, D98H
notes: as for B1
B10: MYT11007 (antibody, V domains shown)
VH: B1 VH
VL: B1 VL with H26S, L54H
notes: as for B1
B11: MYT6162 (antibody, V domains shown)
VH: QVQLVQSGPEVKKPGASVKVSCKASGYTFTDYHVHWVRQAPGKRLEWIGVISTYNDYTYNNQDFKGRVTMTRDTSASTAYMELSRLRSEDTAVYYCARGNSYFYALDYWGQGTSVTVSS
VL: EIVLTQSPATLSLSPGERATLSCRASESVDSYGKSFMHWYQQKPGQAPRLLIYRASNLESGIPARFSGSGSGTDFTLTISSLEPEDFAVYYCQQSNEDPWTFGGGTKLEIK
notes: IgG
B12: MYT6165 (antibody, V domains shown)
VH: B11 VH with H33A, V50H
VL: B11 VL
notes: IgG
B13: MYT11117 (antibody, V domains shown)
VH: EVQLVESGGGLVQPGGSLRLSCTASGFSLSTYAMSWVRQAPGKGLEWVGMIYINHNTYYASWAKGRFTISRDTSKNTVYLQMNSLRAEDTAVYFCARDIGISYYIGVSLWGQGTLVTVSS
VL: EIVMTQSPSTLSASVGDRVIITCQASQSIGTRLSWYQQKPGKAPKLLIYGASKLATGVPSRFSGSGSGAEFTLTISSLQPDDFATYYCLGEYSYTTTDGIAFGQGTKLTVL
notes: MYT9412 HC variant
B14: MYT11136 (antibody, V domains shown)
VH: B13 VH with H55D, Y104H
VL: B13 VL
notes: MYT9412 HC variant
B15: MYT11105 (antibody, V domains shown)
VH: B13 VH with L29H, H55D
VL: B13 VL
notes: MYT9412 HC variant
B16: MYT11134 (antibody, V domains shown)
VH: B13 VH with H55D, S102H
VL: B13 VL
notes: MYT9412 HC variant
B17: MYT11151 (antibody, V domains shown)
VH: B13 VH with H55D
VL: B13 VL with G30H
notes: MYT9412 LC variant
B18: MYT11172 (antibody, V domains shown)
VH: B13 VH with H55D
VL: B13 VL with D98H
notes: MYT9412 LC variant
B19: MYT11144 (antibody, V domains shown)
VH: B13 VH with H55D, D98A
VL: B13 VL
notes: MYT9412 HC alanine variant
B20: MYT11152 (antibody, V domains shown)
VH: B13 VH with H55D
VL: B13 VL with T31H
notes: MYT9412 LC variant
B21: MYT11115 (antibody, V domains shown)
VH: B13 VH with I53H, H55D
VL: B13 VL
notes: MYT9412 HC variant
B22: MYT11166 (antibody, V domains shown)
VH: B13 VH with H55D
VL: B13 VL with Y92H
notes: MYT9412 LC variant
B23: MYT11137 (antibody, V domains shown)
VH: B13 VH with H55D, I105H
VL: B13 VL
notes: MYT9412 HC variant
B24: MYT11120 (antibody, V domains shown)
VH: B13 VH with H55D, Y58H
VL: B13 VL
notes: MYT9412 HC variant
B25: MYT11107 (antibody, V domains shown)
VH: B13 VH with T31H, H55D
VL: B13 VL
notes: MYT9412 HC variant
B26: MYT11163 (antibody, V domains shown)
VH: B13 VH with H55D
VL: B13 VL with L89H
notes: MYT9412 LC variant
B27: MYT11150 (antibody, V domains shown)
VH: B13 VH with H55D
VL: B13 VL with I29H
notes: MYT9412 LC variant
B28: MYT11178 (antibody, V domains shown)
VH: B13 VH with H55D
VL: B13 VL with G99A
notes: MYT9412 LC alanine variant
B29: MYT11146 (antibody, V domains shown)
VH: B13 VH with H55D
VL: B13 VL with A25H
notes: MYT9412 LC variant
B30: MYT11103 (antibody, V domains shown)
VH: B13 VH with F27H, H55D
VL: B13 VL
notes: MYT9412 HC variant
B31: MYT11177 (antibody, V domains shown)
VH: B13 VH with H55D
VL: B13 VL with D98A
notes: MYT9412 LC alanine variant
B32: MYT11108 (antibody, V domains shown)
VH: B13 VH with Y32H, H55D
VL: B13 VL
notes: MYT9412 HC variant
B33: MYT11106 (antibody, V domains shown)
VH: B13 VH with S30H, H55D
VL: B13 VL
notes: MYT9412 HC variant
B34: MYT11153 (antibody, V domains shown)
VH: B13 VH with H55D
VL: B13 VL with R32H
notes: MYT9412 LC variant

The first experiment addresses T1, Human PTK7 Protein, His Tag (Acro Biosystems) (human, UniProt Q13308 31-704).
T1 construct: Bought His-tagged recombinant human PTK7; also called CCK4; Tyrosine-protein kinase-like 7
T1 sequence: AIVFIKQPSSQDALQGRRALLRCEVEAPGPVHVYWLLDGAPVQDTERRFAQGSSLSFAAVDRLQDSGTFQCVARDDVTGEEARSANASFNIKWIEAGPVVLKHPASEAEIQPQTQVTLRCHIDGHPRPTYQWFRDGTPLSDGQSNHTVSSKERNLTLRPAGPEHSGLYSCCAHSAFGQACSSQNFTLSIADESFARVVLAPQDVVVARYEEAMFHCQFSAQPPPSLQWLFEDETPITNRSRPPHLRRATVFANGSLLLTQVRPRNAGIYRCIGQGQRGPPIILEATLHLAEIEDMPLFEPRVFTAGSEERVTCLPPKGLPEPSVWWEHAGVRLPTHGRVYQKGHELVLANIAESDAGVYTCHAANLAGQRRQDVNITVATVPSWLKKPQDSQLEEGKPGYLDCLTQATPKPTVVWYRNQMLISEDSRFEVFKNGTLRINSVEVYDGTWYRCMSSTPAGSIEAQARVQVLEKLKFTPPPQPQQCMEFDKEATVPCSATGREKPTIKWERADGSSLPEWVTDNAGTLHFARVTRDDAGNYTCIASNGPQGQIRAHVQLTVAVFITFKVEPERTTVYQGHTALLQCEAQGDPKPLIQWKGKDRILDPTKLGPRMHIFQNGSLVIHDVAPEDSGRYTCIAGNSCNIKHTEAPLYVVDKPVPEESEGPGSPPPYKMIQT
Kind of experiment: BLI (Octet), antibody on anti-human Fc sensor, 50 nM PTK7; 2 = substantially similar binding. (BLI is a label-free optical method that tracks binding on a fibre tip over time.)
For B1, the binding result is listed as “binds”.

Turning to B2, the binding result was “binds”.

Consider B3, for which the binding result is recorded as “binds”. Take B4: the binding result is given as “binds”. Still for that read-out and setting: next, B5: “binds”.

On to B6, for which the binding result is “binds”. As to B7, the binding result is on record as “binds”. Take B8: the binding result is on record as “binds”. As for B9, the binding result is given as “binds”.

As for B10, the binding result is recorded as “binds”.

For a further experiment, the target named is T2, Human PTK7/CCK4 Protein, His Tag, Acro Biosystems PT7-H52H3 (human, UniProt Q13308 31-704).
T2 construct: bought protein; also called Human PTK7 Protein, His Tag, Acro Biosystems; not shown: His tag
T2 sequence: T1 sequence
Kind of experiment: BLI, antibody on anti-human Fc sensor.
B11: the binding result is “no binding (tested: 50 nM PTK7)”. Turning to B12, the binding result was “no binding (tested: 50 nM PTK7)”.

For the next experiment, the target named is T3, Human PTK7 Protein, His Tag, Acro Biosystems (human, UniProt Q13308 31-704).
T3 construct: Bought recombinant protein; also called CCK4; not shown: His tag
T3 sequence: T1 sequence
Kind of experiment: BLI, anti-human Fc capture, 50 nM PTK7; 1 = pH dependent binding relative to parent.
As to B13, the binding result is recorded as “binds”. In the case of B14, the binding result is given as “binds”.

As to B15, the binding result is given as “binds”. Turning to B16, the binding result is listed as “binds”. As to B17, the binding result is “binds”. Same read-out and setting: next, B18: “binds”; B19: “binds”; B20: “binds”. In the case of B21, the binding result is reported as “binds”. Regarding B22, the binding result is recorded as “binds”. B23: the binding result is listed as “binds”. With B24, the binding result was “binds”. For B25, the binding result is on record as “binds”. For B26, the binding result is recorded as “binds”. For B27, the binding result was “binds”. Consider B28, for which the binding result is listed as “binds”. Turning to B29, the binding result was “binds”.

With B30, the binding result is recorded as “binds”.

As for B31, the binding result is reported as “binds”. B32: the binding result is “binds”.

With B33, the binding result is recorded as “binds”. Consider B34, for which the binding result was “binds”.
